Here are results for three molecules from article PMC10269683, “comCDE (Competence) Operon Is Regulated by CcpA in Streptococcus pneumoniae D39”.

Series [1] addresses T1, CcpA (Streptococcus pneumoniae D39, UniProt A0A0H2ZQ65 1-336). Put plainly: EMSA; increasing CcpA; EMSA: 10 mM Tris-HCl pH 7.4, 1 mM DTT, 1 mM EDTA, 50 mM KCl, 5% glycerol, 50 ug/mL BSA, 0.05% NP-40, 20 min 37 C; footprinting binding 30 min 25 C. The settings on record: protein: recombinant; label: biotin; blunt. Background: Mobility shift assays separate free from complexed probe on a gel.

In series [2] the target is T1, CcpA. Put plainly: EMSA; complex at 1 ug CcpA, 1 ng probe; unlabeled Np54 (100 ng) diminished complex; EMSA: 10 mM Tris-HCl pH 7.4, 1 mM DTT, 1 mM EDTA, 50 mM KCl, 5% glycerol, 50 ug/mL BSA, 0.05% NP-40, 20 min 37 C; footprinting binding 30 min 25 C. The settings on record: protein: recombinant; label: 5' biotin; blunt.

B1: Mut cre1 (dsDNA)
DNA 1: ATATAATAGATGCATGTCATGTGAATTCCACGTTGCATCTAATTAAGTACACTTTGGGAGAAAAAAATGACAGTTGAGA
DNA 2: TCTCAACTGTCATTTTTTTCTCCCAAAGTGTACTTAATTAGATGCAACGTGGAATTCACATGACATGCATCTATTATAT
For the molecule B1, the binding result with CcpA [1] was “binds”.

B2: Mut cre2 (dsDNA)
DNA 1: ATATAATAGCAAAGCTGGGAATTTTCCCGGCTTTTTTCTTAAAAAAGTACACAACGATAGATATTAGGTAGAATGGAGA
DNA 2: TCTCCATTCTACCTAATATCTATCGTTGTGTACTTTTTTAAGAAAAAAGCCGGGAAAATTCCCAGCTTTGCTATTATAT
With B2, in the series with CcpA [1], the binding result is reported as “binds”.

B3: P54 (cre3+cre4) (dsDNA)
DNA 1: TAAGTTAGCTTACAAGAAAAAACATTTTAGGAGATTTTATTATGAAAAACACAG
DNA 2: CTGTGTTTTTCATAATAAAATCTCCTAAAATGTTTTTTCTTGTAAGCTAACTTA
For the molecule B3, in the series with CcpA [2], the binding result is “binds”.
